“And” between values parts separate entries of the source, which are not always exact repeats. Equal entries are not always repeated.

For orientation: stoichiometry N means a count of units in the complex or per binding partner. For orientation: koff means the rate constant with which the complex falls apart. Low readings indicate a long-lived complex, high ones a short-lived complex. Broadly, the kon is the second-order rate constant of association. Read a low kon as slower complex formation.

Experiment [1] addresses FakA H282A, H284A variant (Staphylococcus aureus) (S. aureus). Nature of the experiment: mass photometry; kinetic mass photometry, 20 min after dilution to 10 nM (equilibrium); room temperature; 50 mM Tris pH 7.4, 150 mM KCl, 1 mM TCEP, 10 uM ZnSO4; dimer to monomers.
The target is the same in experiment [2]. Nature of the experiment: mass photometry; kinetic mass photometry, initial reading (0 min) after dilution to 10 nM; room temperature; 50 mM Tris pH 7.4, 150 mM KCl, 1 mM TCEP, 10 uM ZnSO4; dimer to monomers.
Experiment [3] addresses His-tagged FakB2 (Staphylococcus aureus) (S. aureus). The experiment can be described thus: BLI; additional studies as a1 but FakB loaded at a range of 2 to 20 ug/mL. (In general: Biolayer interferometry detects binding as a change in optical thickness at a sensor tip.)
The target in experiment [4] is Fatty acid kinase FakA, wild type (Staphylococcus aureus) (S. aureus). Nature of the experiment: SEC-SAXS; size-exclusion chromatography coupled with small-angle X-ray scattering of FakA in solution; AlphaFold dimer model refined with BilboMD, envelopes by DAMMIF and DENSS.
For experiment [5] the target is unchanged. Nature of the experiment: mass photometry; kinetic mass photometry, 20 min after dilution to 10 nM (equilibrium); room temperature; 50 mM Tris pH 7.4, 150 mM KCl, 1 mM TCEP, 10 uM ZnSO4; dimer to monomers.
The target is the same in experiment [6]. The experiment can be described thus: mass photometry; kinetic mass photometry, initial reading (0 min) after dilution to 10 nM; room temperature; 50 mM Tris pH 7.4, 150 mM KCl, 1 mM TCEP, 10 uM ZnSO4; dimer to monomers.
For experiment [7], the target named is His-tagged FakB2 (Staphylococcus aureus) (S. aureus). Nature of the experiment: BLI; His-FakB2 (2 ug/mL) immobilised on Ni-NTA biosensor tips, blocked with 0.1 mg/mL BSA; varying concentrations of untagged FakA, 5 min association, 10 min dissociation; 50 mM Tris HCl pH 7.4, 150 mM KCl, 1 mM TCEP, 5% glycerol, 10 mM MgCl2; Octet RED96e; fitted 1:1 and with a bivalent analyte model.

In experiment [8] the target is His-FakB2 (fatty acid binding protein FakB2, Staphylococcus aureus) (S. aureus). The experiment can be described thus: BLI; Octet RED96e; His-FakB2 (2 ug/mL) immobilised on Ni-NTA biosensor tips, blocked with 0.1 mg/mL BSA; untagged FakA 1.65-133.3 nM in solution, 5 min association, 10 min dissociation; 50 mM Tris HCl pH 7.4, 150 mM KCl, 1 mM TCEP, 5% glycerol, 10 mM MgCl2; 1:1 binding model (1 FakB2:1 FakA binding site).

For “FakA H282A, H284A variant (Staphylococcus aureus) (enzyme)”, the percent of protein in the dimer peak in experiment [1] was 24%; in experiment [2], 63%.

With “Fatty acid kinase FakA, wild type (Staphylococcus aureus) (enzyme)”, the Kd in experiment [3] was 4.34 to 15 nM and 10.6 nM; in experiment [7], 4.34 nM. The stoichiometry N in experiment [4] was 2. Moreover, the results for the percent of protein in the dimer peak in experiment [5] and in experiment [6] were 57% and 77%, respectively.

With “FakA (fatty acid kinase, Staphylococcus aureus), untagged (enzyme)”, in experiment [8], the koff stood at 0.000686 s⁻¹ and the kon stood at 158000 M⁻¹ s⁻¹.

These data come from publication PMC11617999.
